Test results published in patent US20210371530A1 (Merck Sharp & Dohme, published 2021).
Positions count from the first letter of the chain named. Names may count otherwise. Values belong to the binder of their own block, whether it stands above or below them.

Assays:
human PD-1 on cells = human PD-1 on cells (human, UniProt Q15116 25-288); assay: cell-based or functional assay
[1] = target: T1, polyhistidine-tagged human PD-1 (hPD1-His, 98AFK) (human, UniProt Q15116 25-167, limits assumed); assay: SPR capture format; reference Mouse 08A
T1 construct: Lot 98AFK; also called human PD1-His; Human PD-1-His; not shown: polyhistidine tag
T1 sequence (Q15116 25-167 limits assumed): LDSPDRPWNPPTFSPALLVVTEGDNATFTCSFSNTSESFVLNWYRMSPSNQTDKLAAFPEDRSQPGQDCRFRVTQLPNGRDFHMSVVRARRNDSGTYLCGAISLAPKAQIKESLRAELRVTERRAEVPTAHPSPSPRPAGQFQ
Experimental: A surface plasmon resonance (SPR)-based assay utilizing capture mode was used to determine the binding kinetics and affinities of anti-PD-1 antibodies against polyhistidine-tagged human PD-1 (hPD1-His, 98AFK). Following manufacture instructions, a series S sensor chip CM5 (GE Healthcare, BR100530) was activated using an amine-coupling kit (GE Healthcare, BR100050). Either human capture kit (anti-human Fc, 25 μg/mL, GE Healthcare, BR100839) or mouse capture kit (anti-mouse Fc, 30 μg/mL, GE Healthcare, BR100838) antibody diluted in the supplied pH 5.0, 10 mM sodium acetate buffer was immobilized onto the activated surface for 7 minutes. After immobilization, surfaces were deactivated with 1M ethanolamine/HCl (pH 8.5) for 7 minutes. The final immoblization levels reached ˜8,000 resonance units (RU) for mouse capture or 12,000 RU for human capture in each of the four flow cells.
Binding kinetics were measured on a biacore T200 in HBS-EP+(0.01 M HEPES pH 7.4, 0.15 M NaCl, 3 mM EDTA, 0.05% v/v Surfactant P20) running buffer at 25° C. Antibodies were captured either on mouse or human Fc capture surfaces at 10 μL/min flow rate. Antibodies were captured on flow cells 2, 3 and 4. Flow cell 1 was used as a reference with no antibody captured. A 6-point, 2-fold serial dilutions of the analyte 98AFK (hPD1-His), starting at 20 nM, were prepared in the running buffer (HBS-EP+). Two buffer blanks were included for double referencing. Titration series were injected for 3 minutes at 50 μl/min followed by 600 seconds of dissociation. After each cycle, surfaces were regenerated with a 30 second injection of 3M MgCl2 at […] on the anti-human Fc chip or 180 seconds of 10 mM Glycine pH 1.7 at 10 μl/min on the anti-mouse Fc chip.
Sensorgram processing and data analysis were performed with Biacore T200 Evaluation Software Version 2.0.4 (GE Healthcare). […] Processed curves were globally fitted to a 1:1 binding model to determine the association rate constant, kₒₙ (M⁻¹s⁻¹, where “M” equals molar and “s” equals seconds) and the dissociation rate constant, koff (s⁻¹). These rate constants were used to calculate the equilibrium dissociation constant, KD (M)=koff/kₒₙ.

[2] = target: T1, polyhistidine-tagged human PD-1 …; assay: SPR solution affinity; reference Humanized 08A IgG4 S61N (98AIO)
Experimental: The titration series were incubated for 16-24 hours to reach equilibrium at room temperature. The unbound sites were measured using a BIAcore chip immobilized with antigen in a competition mode where SPR signal detected corresponded to unbound antibody.
The titration series following >16 hr. incubation were injected over the sensor chip immobilized with hPD1-His (above). Free, unbound antibodies concentrations were measured as proportional to RU after 120 seconds (for 500 pM mAb series) or 400 seconds (for 100 pM mAb series) of injection at 10 μL/min. After each cycle, surfaces were regenerated with a 30 second injection of 1:1 mixture of 3M MgCl2 and pH 2.0 10 mM glycine at 30 μL/min
Data analyses were performed using KINEXA Pro Version 1.02 (Sapydyne) where RUs were normalized and plotted against concentrations.

human PD-1 on cells, sequence (Q15116 25-288): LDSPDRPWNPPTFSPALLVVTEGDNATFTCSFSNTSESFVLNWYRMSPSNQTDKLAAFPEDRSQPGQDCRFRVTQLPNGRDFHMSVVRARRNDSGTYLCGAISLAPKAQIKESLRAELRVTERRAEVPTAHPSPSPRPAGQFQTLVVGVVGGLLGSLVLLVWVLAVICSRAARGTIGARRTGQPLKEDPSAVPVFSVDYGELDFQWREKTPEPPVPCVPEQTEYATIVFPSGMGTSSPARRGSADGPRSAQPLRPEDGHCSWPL

B2: Humanized 08A IgG4 Fab 100 S61N G56A (antibody, V domains shown)
VH: EVQLVQSGAEVKKPGASVKVSCKASGYTFTSYYLYWVRQAPGQGLEWIGGVNPSNAGTNFNEKFKSRVTLTVDTSISTAYMELSRLRSDDTAVYYCTRRLSHYDGGFDYWGQGTTVTVSS
VL: DIVMTQTPLSLSVTPGQPASISCRASKSVSTSGFSYLHWYLQKPGQPPQLLIFLSKYRSSGVPDRFSGSGSGTDFTLKISRVEAEDVGVYYCSQAYHLPLTFGQGTKLEIKR
notes: also called 25AVE
KD (REF) / KD [1]: 5.7 ratio | KD (REF) / KD [2]: > 13 ratio

B3: Humanized 08A IgG4 S61N G56A (antibody, V domains shown)
VH: B2 VH with L100D, H102N
VL: B2 VL with S55A, K56S, Y57N, R58L, S59E, S93Q, Q94H, A95S, Y96W, H97E
notes: IgG4 S228P / kappa; also called 51AQK; 08A/HuPD1A-11 S61N VH G56A IgG4 S228P / Kappa
KD (REF) / KD [1]: 4.2 ratio | KD (REF) / KD [2]: 1 ratio

B4: Anti-PD-1/LAG3 bispecific antibody 90ASU (bispecific antibody, human IgG1, kappa, L234A L235A)
heavy 1: not shown
light 1: DIVMTQTPLSLSVTPGQPASISCRASKSVSTSGFSYLHWYLQKPGQPPQLLIFLASNLESGVPDRFSGSGSGTDFTLKISRVEAEDVGVYYCQHSWELPLTFGQGTKLEIKRTVAAPSVFIFPPSDERLKSGTASVVCLLNNFYPREAKVQWKVDNALQSGNSQESVTEQDSKDSTYSLSSRLTLSKADYEKHKVYACEVTHQGLSSPVTKSFNRGEC
heavy 2: QMQLVQSGPEVKKPGTSVKVSCKASGYTFTDYNVDWVRQARGQRLEWIGDINPNDGGTIYAQKFQERVTITVDKSTSTAYMELSSLRSEDTAVYYCARNYRWFGAMDHWGQGTTVTVSSASTKGPSVFPLAPSSKSTSGGTAALGCLVKDYFPEPVTVSWNSGALTSGVHTFPAVLQSSGLYKLSSVVTVPSSSLGTQTYICNVNHKPSNTKVDKKVEPKSCDKTHTCPPCPAPEAAGGPSVFLFPPKPKDTLMISRTPEVTCVVVSVSHEDPEVKFNWYVDGVEVHNAKTKPREEQYNSTYRVVSVLTVLHQDWLNGKEYKCKVSNKALPAPIEKTISKAKGQPREPQVYVLPPSRDELTKNQVSLLCLVKGFYPSDIAVEWESNGQPENNYLTWPPVLDSDGSFFLYSKLTVDKSRWQQGNVFSCSVMHEALHNHYTQKSLSLSPG
light 2: DIVMTQTPLSLSVTPGQPASISCKASQSLDYEGDSDMNWYLQKPGQPPQLLIYGASNLESGVPDRFSGSGSGTDFTLKISRVEAEDVGVYYCQQSTEDPRTFGGGTKVEIKRTVAAPSVFIFPPSDEELKSGTATVVCLLNNFYPREAKVQWKVDNALQSGNSQESVTEQDSKDSTYSLSSYLELSKADYEKHKVYACEVTHQGLSSPVTKSFNRGEC
AVG EC50 (nM), IL-2 luciferase reporter, Jurkat.hPD-1.IL2luc + THP-1.PD-L1 assay (human PD-1 on cells): 2.54 nM

B5: Anti-PD-1/LAG3 bispecific antibody 33ARK (bispecific antibody, human IgG1, kappa, L234A L235A)
heavy 1: EVQLVQSGAEVKKPGASVKVSCKASGYTFTSYYLYWVREAPGQGLEWIGGVNPSNGGTNFNEKFKSRVTLTVDTSISTAYMELSRLRSDDTAVYYCTRRDSNYDGGFDYWGQGTTVTVSSASTKGPSVFPLAPSSKSTSGGTAALGCEVTDYFPEPVTVSWNSGALTSGVHTFPAVLESSGLYSLSSVVTVPSSSLGTQTYICNVNHKPSNTKVDKKVEPKSCDKTHTCPPCPAPEAAGGPSVFLFPPKPKDTLMISRTPEVTCVVVSVSHEDPEVKFNWYVDGVEVHNAKTKPREEQYNSTYRVVSVLTVLHQDWLNGKEYKCKVSNKALPAPIEKTISKAKGQPREPQVYVLPPSRDELTKNQVSLLCLVKGFYPSDIAVEWESNGQPENNYLTWPPVLDSDGSFFLYSKLTVDKSRWQQGNVFSCSVMHEALHNHYTQKSLSLSPG
light 1: B4 light 1 with Q42R, Q164K
heavy 2: not shown
light 2: B4 light 2 with Q42E, T135S, Q164E, Y182T
AVG EC50 (nM), IL-2 luciferase reporter, Jurkat.hPD-1.IL2luc + THP-1.PD-L1 assay (human PD-1 on cells): 3.12 nM

Next, values leading:

AVG EC50 (nM), IL-2 luciferase reporter, Jurkat.hPD-1.IL2luc + THP-1.PD-L1 assay (human PD-1 on cells): 3.32 nM
B1: Fab 00APE (humanized 08A Fab with S61N correction) (Fab, V domains shown)
VH: B2 VH with A56G, L100D, H102N
VL: B2 VL with S55A, K56S, Y57N, R58L, S59E, S93Q, Q94H, A95S, Y96W, H97E

AVG EC50 (nM), IL-2 luciferase reporter, Jurkat.hPD-1.IL2luc + THP-1.PD-L1 assay (human PD-1 on cells): 0.55 nM
B6: Anti-PD-1/LAG-3 bispecific antibody 18ASS (bispecific antibody, human IgG1, kappa, L234A L235A)
heavy 1: not shown
light 1: B4 light 1 with A55S, S56K, N57Y, L58R, E59S, Q93S, H94Q, S95A, W96Y, E97H
heavy 2: B4 heavy 2
light 2: B4 light 2
